Experimental findings from US20220356210A1, “A SERIES OF INJECTABLE HYDROGELS SELF-ASSEMBLED FROM SHORT PEPTIDES FOR VARIOUS BIOMEDICAL APPLICATIONS” (Agency for Science, Technology and Research, priority 2019, published 2022) are described below.

The subject of series [1] is human primary keratinocytes. In words: In vitro cytotoxicity, MTT assay. Format: cell-based. As to conditions: 24 h. Here is the method: (§1) 1000 μL of HDFs or keratinocytes (10^5 cells per mL) were seeded onto the 12-well Transwell plates (Corning). IIK12 (1%) with various contents of antimicrobial peptides were dissolved in water and incubated at 37° C. overnight and 100 μL of gels were then transferred to the inserts of the Transwell plate. 1 mL of fresh medium was added into the inserts. The plates were incubated for 24 h before proceeding to MTT assay. It is noted that cells without any treatment and Mupirocin (GSK) were used as controls. The data were expressed as mean and standard deviation of three replicates and the tests were repeated 3 times.
(Formazan colour is commonly taken as a measure of viable cells.)

The subject of series [2] is human dermal fibroblasts (HDFs). In words: In vitro cytotoxicity, MTT assay. As to conditions: 2000 μg/mL, 24 h. In kind it is cell-based. As to the method: as §1
The subject of series [3] is S. aureus. Briefly: Killing kinetics test. In kind it is cell-based. As to conditions: 24 h of incubation. As to the method:
The microbes were treated with peptide hydrogels as described above. At various time periods of treatment, the microbial samples were diluted for plating (LB Agar, 1st Base). Incubation conditions: 18 h, 37° C. for bacteria. The colony-forming units were counted after the incubation period. The experiment was repeated in independent settings three times.

Series [4] can be described thus: Dynamic step strain amplitude test. Format: physicochemical. As to conditions: 2.0 (w/v) % in water. An excerpt: The reduction of viscosity was attributed to the disruption of physical cross-links between the peptide molecules upon the application of shear stress. In order for a peptide gel construct containing a drug and/or cell/s to be delivered by syringe, it is essential that the disrupted gel with low viscosity could rapidly recover back into a stiff gel when the shear stress terminates. The ability of the peptide hydrogels to recover was investigated using a dynamic step strain amplitude test, where strain of 0.5% and 100% were periodically applied on the peptide hydrogels. […] After subjected 30 s of continuous high strain, the strain was reduced to 0.5%. […] This reversibility of peptide hydrogel in the presence of DMEM was further evaluated under the same conditions. […] The G′ value is reduced remarkably by ˜2000 times to ˜1 Pa when subjected a high stain of 100%. […] A similar phenomenon was also observed for IIK12 hydrogel, where the storage moduli of IIK12 hydrogel increased with increasing peptide concentrations (Table 5). […] This rheological behavior of the peptide hydrogels offers a great advantage for use as an injectable matrix for delivery of therapeutics such as drugs and cells. The fast recovery kinetics can be explained by the fact that the physical cross-links of the gel network immediately recovered after the high strain terminated.

For series [5], the system named is C. albicans. In words: Antimicrobial activity of peptide hydrogels (OD and agar plating). Format: cell-based. As to conditions: control gel, IIK12 at 1%, no antimicrobial peptide. Here is the method:
(§2) Hydrogels for the antimicrobial assays were prepared in 96-well tissue culture plates (NUNC). Briefly, IIK12 (1%) with various contents of antimicrobial peptides was dissolved in water and vortexed. 50 μL of solution was transferred to the wells. Gelation occurred overnight at 37° C. The growth of microorganisms on hydrogels was measured using a broth dilution method. Briefly, 30 μL of microorganism suspension (3.5×10^5 CFU/mL) was introduced onto the hydrogels, and a 96-well plate and peptide hydrogel without antimicrobial peptides were used as controls. The optical density readings of bacterial solutions were monitored by measuring OD600 nm. The assay was performed in four replicates for each sample and the experiments were repeated at least three times. Antimicrobial activity was further tested through a spread plate method. Briefly, hydrogels were challenged with microorganism solution, at the end of treatment, microbial suspension on the hydrogel surface was withdrawn and diluted sequentially, and then plated on 1.5% LB agar plates. The plates were incubated for 24 h at 37° C. (48 h at room temperature for C. albicans). Microbial colonies were formed and counted. The experiments were performed in triplicate and were repeated three times.

Series [6] concerns S. aureus. Described as above. In kind it is cell-based. As to conditions: control gel, IIK12 at 1%, no antimicrobial peptide. As to the method:
as §2

Series [7] relates to E. coli. The series is described as above. In kind it is cell-based. As to conditions: control gel, IIK12 at 1%, no antimicrobial peptide. Here is the method: as §2
Series [8] concerns S. aureus. Briefly: Disk diffusion assay. In kind it is cell-based. As to conditions: hydrogel cast on inoculated agar, one day at 37° C. As to the method: Antimicrobial activity was further tested through a disk diffusion assay. Briefly, microbial suspension (S. aureus, ATCC No. 6538) with 3.5×10^6 CFU/mL (40 μL) was spread on 1.5% LB agar plates. Disks (Sigma) were prepared to contain 50 μL of peptides with various concentrations by dripping 50 μL of peptides solutions onto a sterile disk. Disks were air-dried for several minutes before being placed onto different zones in the agar plates. Hydrogels (100 μL) were placed onto LB agar plates. The plates were incubated for 24 h at 37° C.
For orientation: A growth-free zone around the sample is the usual read-out of agar diffusion tests.

Series [9] in a line: Gelation by vial tilting method. In kind it is physicochemical. As to the method:
The peptide powder was dissolved in water or other aqueous solutions at the required concentrations. Alternatively, the required salt may be added after the peptide aqueous solution is prepared. The hydrogel was formed by mixing the peptide aqueous solution and salt (if required). For example, the solution was vortexed and then incubated to form hydrogel. The hydrogel formed may be stored as formed, or may be dried, for example by freeze drying. Alternatively, the hydrogel may be formed as required. The gelation time was determined by the vial tilting method. […] Rheology experiments were performed at room temperature using a control-strain rheometer (ARES G2, TA instruments). The rheometer is equipped with two sensitive force transducers for torque ranging from 0.05 μN·m to 200 mN·m. The peptide powder was dissolved in water at concentrations ranging from 1.0 to 2.0 (w/v) %. The solution was vortexed and then incubated to form hydrogel. The gel was placed onto parallel-plate geometry (8 mm in diameter). The dynamic storage modulus (G′) and loss modulus (G″) were examined as a function of frequency from 1 to 100 rad/s. The measurements were carried out at a strain amplitude (y) to ensure the linearity of viscoelasticity. Flow sweep (viscosity changes as a function of shear rate) was also performed to study shear thinning properties of hydrogels.

The nature of series [10]: Rheology, G′ and G″ at frequency of 1 Hz. Format: physicochemical. As to conditions: incubated at 37° C. overnight. As to the method: The gelation time was determined by the vial tilting method. […] Rheology experiments were performed at room temperature using a control-strain rheometer (ARES G2, TA instruments). The rheometer is equipped with two sensitive force transducers for torque ranging from 0.05 μN·m to 200 mN·m. […] The solution was vortexed and then incubated to form hydrogel. The gel was placed onto parallel-plate geometry (8 mm in diameter). The dynamic storage modulus (G′) and loss modulus (G″) were examined as a function of frequency from 1 to 100 rad/s. The measurements were carried out at a strain amplitude (y) to ensure the linearity of viscoelasticity. Flow sweep (viscosity changes as a function of shear rate) was also performed to study shear thinning properties of hydrogels.

No end group written: not given here.

As for `C/C(=C\C(=O)OCCCCCCCCC(=O)O)C[C@@H]1OC[C@H](C[C@@H]2O[C@H]2[C@@H](C)[C@H](C)O)[C@@H](O)[C@H]1O` [Mupirocin, reference compound], the figures for the Cell viability in [1] and in series [2] were 80-90% and “more than 80%”, respectively.

For IRIKIEIEIRIK (IRIKIEIEIRIK-NH2) [IIK12], the “Log (CFU)” value in [3] was 9.28. Further, the “Rheological behavior in dynamic step strain amplitude measurement” value in series [4] is listed as “reversible rheological behavior”. The “Killing of the microbes (OD measurement and agar plating)” value in series [5], in [6] and in series [7] was “ineffective” each time. In addition, the “S. aureus colony formation on agar in contact with gel” value in series [8] is “ineffective”. In addition, the “Lowest concentration at which hydrogels self-assembled” value in [9] (aqueous solution) is given as 0.6 (w/v) %. Also, the “Gelation in DI water at 37° C. (via tilting)” value in series [9] (peptide conc. 0.6, 1.0 %) is “Gel”. The “G′ (storage modulus)” value in series [10] (0.6 wt %, H2O) turned out to be 65 Pa; in [10] (0.8 wt %, H2O) it was 131 Pa; in series [10] (1.0 wt %, DMEM), 1206 Pa; in series [10] (1.0 wt %, H2O), 279 Pa; in series [10] (1.5 wt %, H2O), 598 Pa; in series [10] (2.0 wt %, H2O) it was 865 Pa. For the same compound, the “G″ (loss modulus)” value in series [10] (0.6 wt %, H2O) is given as 7 Pa; in series [10] (0.8 wt %, H2O), 24 Pa; in series [10] (1.0 wt %, DMEM), 176 Pa; in series [10] (1.0 wt %, H2O), 48 Pa; in series [10] (1.5 wt %, H2O), 66 Pa; in series [10] (2.0 wt %, H2O) it was 69 Pa.
